From the array DNA melting data of Ke et al.

Experiment: melting temperature; melt of duplexes
Details: sodium 0.0675 M; strand 1 µM

Compared with “CGACGTGCCTCATGTGCTG+CAGCACATATTGCACGTCG ((((((((...((((((((+))))))))...))))))))”, “CGACGTGCGGAATGTGCTG+CAGCACATTGAGCACGTCG ((((((((..(((((((((+)))))))))..))))))))” is higher in Tm: 46.7 °C for the first, 56.2 °C for the second.

Compared with “CGACGTGCATAATGTGCTG+CAGCACATGGGGCACGTCG ((((((((...((((((((+))))))))...))))))))”, “CGACGTGCAGGATGTGCTG+CAGCACATACAGCACGTCG ((((((((.(.((((((((+)))))))).).))))))))” is higher in Tm: 51.2 °C for the first, 55 °C for the second.

Going from “CGACGTGCATTATGTGCTG+CAGCACATTAAGCACGTCG ((((((((.(.((((((((+)))))))).).))))))))” to “CGACGTGCAAGATGTGCTG+CAGCACATATAGCACGTCG ((((((((.(.((((((((+)))))))).).))))))))”, the Tm rises from 50.3 °C to 52 °C.

Going from “CGACGTGCCTGATGTGCTG+CAGCACATAGTGCACGTCG ((((((((...((((((((+))))))))...))))))))” to “CGACGTGCAAAATGTGCTG+CAGCACATGGGGCACGTCG ((((((((...((((((((+))))))))...))))))))”, the Tm rises from 46.5 °C to 51.7 °C.

Going from “CGACGTGCACCATGTGCTG+CAGCACATGATGCACGTCG (((((((((.(((((((((+))))))))).)))))))))” to “CGACGTGCCGCATGTGCTG+CAGCACATGGAGCACGTCG ((((((((..(((((((((+)))))))))..))))))))”, the Tm falls from 56.5 °C to 55.1 °C.

Compared with “CGACGTGCCATATGTGCTG+CAGCACATCAGGCACGTCG (((((((((..((((((((+))))))))..)))))))))”, “CGACGTGCCCCATGTGCTG+CAGCACATCCTGCACGTCG ((((((((...((((((((+))))))))...))))))))” is lower in Tm: 53.5 °C for the first, 46.8 °C for the second.

“CGACGTGCCACATGTGCTG+CAGCACATGCCGCACGTCG ((((((((..(((((((((+)))))))))..))))))))” and “CGACGTGCTATATGTGCTG+CAGCACATGAGGCACGTCG ((((((((...((((((((+))))))))...))))))))” are the same in Tm: 52 °C for the first, 52 °C for the second.

First: CGACGTGCAACATGTGCTG+CAGCACATCTTGCACGTCG ((((((((((.((((((((+)))))))).))))))))))
Second: CGACGTGCATAATGTGCTG+CAGCACATTACGCACGTCG ((((((((.((((((((((+)))))))))).))))))))
The Tm of the first is lower: 52.5 °C for the first, 54.4 °C for the second.

First: CGACGTGCGCGATGTGCTG+CAGCACATTACGCACGTCG (((((((((..((((((((+))))))))..)))))))))
Second: CGACGTGCATAATGTGCTG+CAGCACATCTTGCACGTCG (((((((((..((((((((+))))))))..)))))))))
The Tm of the first is higher: 54.9 °C for the first, 50.8 °C for the second.

First: CGACGTGCATCATGTGCTG+CAGCACATACTGCACGTCG (((((((((..((((((((+))))))))..)))))))))
Second: CGACGTGCTAGATGTGCTG+CAGCACATCTAGCACGTCG (((((((((((((((((((+)))))))))))))))))))
The Tm of the first is lower: 49.7 °C for the first, 63.6 °C for the second.

Going from “CGACGTGCCCTATGTGCTG+CAGCACATACAGCACGTCG ((((((((..(((((((((+)))))))))..))))))))” to “CGACGTGCCTAATGTGCTG+CAGCACATCATGCACGTCG ((((((((.(.((((((((+)))))))).).))))))))”, the Tm falls from 48.8 °C to 48.5 °C.

Compared with “CGACGTGCTTCATGTGCTG+CAGCACATTCGGCACGTCG ((((((((...((((((((+))))))))...))))))))”, “CGACGTGCAGTATGTGCTG+CAGCACATAATGCACGTCG (((((((((.(((((((((+))))))))).)))))))))” is higher in Tm: 48.1 °C for the first, 57 °C for the second.

Compared with “CGACGTGCCCCATGTGCTG+CAGCACATCACGCACGTCG ((((((((...((((((((+))))))))...))))))))”, “CGACGTGCTCTATGTGCTG+CAGCACATACCGCACGTCG ((((((((..(((((((((+)))))))))..))))))))” is higher in Tm: 45.7 °C for the first, 48.5 °C for the second.

Compared with “CGACGTGCGGAATGTGCTG+CAGCACATGTAGCACGTCG ((((((((...((((((((+))))))))...))))))))”, “CGACGTGCAGAATGTGCTG+CAGCACATCCAGCACGTCG ((((((((.(.((((((((+)))))))).).))))))))” is lower in Tm: 60.4 °C for the first, 51.6 °C for the second.

Compared with “CGACGTGCGTCATGTGCTG+CAGCACATATTGCACGTCG ((((((((...((((((((+))))))))...))))))))”, “CGACGTGCTAAATGTGCTG+CAGCACATACAGCACGTCG (((((((((..((((((((+))))))))..)))))))))” is higher in Tm: 49.2 °C for the first, 51.9 °C for the second.

Going from “CGACGTGCGGCATGTGCTG+CAGCACATCGAGCACGTCG ((((((((...((((((((+))))))))...))))))))” to “CGACGTGCCGAATGTGCTG+CAGCACATTAGGCACGTCG (((((((((.(((((((((+))))))))).)))))))))”, the Tm rises from 53.6 °C to 59.6 °C.

First: CGACGTGCTGGATGTGCTG+CAGCACATCTAGCACGTCG (((((((((.(((((((((+))))))))).)))))))))
Second: CGACGTGCTTCATGTGCTG+CAGCACATGAAGCACGTCG (((((((((((((((((((+)))))))))))))))))))
The Tm of the first is lower: 60 °C for the first, 64.4 °C for the second.

Going from “CGACGTGCATCATGTGCTG+CAGCACATAGCGCACGTCG ((((((((...((((((((+))))))))...))))))))” to “CGACGTGCAGAATGTGCTG+CAGCACATTAGGCACGTCG ((((((((..(((((((((+)))))))))..))))))))”, the Tm rises from 48.2 °C to 54.1 °C.

Compared with “CGACGTGCCCCATGTGCTG+CAGCACATTACGCACGTCG ((((((((...((((((((+))))))))...))))))))”, “CGACGTGCCTTATGTGCTG+CAGCACATGGTGCACGTCG ((((((((...((((((((+))))))))...))))))))” is lower in Tm: 54.6 °C for the first, 46 °C for the second.

Going from “CGACGTGCTGCATGTGCTG+CAGCACATCCAGCACGTCG ((((((((((.((((((((+)))))))).))))))))))” to “CGACGTGCATCATGTGCTG+CAGCACATGGGGCACGTCG ((((((((..(((((((((+)))))))))..))))))))”, the Tm rises from 55.9 °C to 56.5 °C.

First: CGACGTGCCCAATGTGCTG+CAGCACATACTGCACGTCG ((((((((...((((((((+))))))))...))))))))
Second: CGACGTGCCCAATGTGCTG+CAGCACATAAAGCACGTCG ((((((((...((((((((+))))))))...))))))))
The Tm of the first is lower: 47.5 °C for the first, 50.1 °C for the second.

Going from “CGACGTGCTGTATGTGCTG+CAGCACATCAGGCACGTCG ((((((((...((((((((+))))))))...))))))))” to “CGACGTGCCTTATGTGCTG+CAGCACATGTCGCACGTCG ((((((((...((((((((+))))))))...))))))))”, the Tm falls from 51.7 °C to 47.8 °C.

Going from “CGACGTGCAGAATGTGCTG+CAGCACATGACGCACGTCG ((((((((...((((((((+))))))))...))))))))” to “CGACGTGCCTCATGTGCTG+CAGCACATCCAGCACGTCG ((((((((...((((((((+))))))))...))))))))”, the Tm falls from 53.1 °C to 47.4 °C.

First: CGACGTGCGCAATGTGCTG+CAGCACATGCAGCACGTCG ((((((((...((((((((+))))))))...))))))))
Second: CGACGTGCTGAATGTGCTG+CAGCACATGTAGCACGTCG (((((((((..((((((((+))))))))..)))))))))
The Tm of the first is higher: 57.9 °C for the first, 54.3 °C for the second.

Going from “CGACGTGCCGAATGTGCTG+CAGCACATCTAGCACGTCG ((((((((...((((((((+))))))))...))))))))” to “CGACGTGCGGAATGTGCTG+CAGCACATTTGGCACGTCG ((((((((..(((((((((+)))))))))..))))))))”, the Tm rises from 50.1 °C to 54.6 °C.

Going from “CGACGTGCGTTATGTGCTG+CAGCACATCCTGCACGTCG ((((((((...((((((((+))))))))...))))))))” to “CGACGTGCCCCATGTGCTG+CAGCACATACAGCACGTCG ((((((((...((((((((+))))))))...))))))))”, the Tm falls from 49.2 °C to 47.1 °C.

First: CGACGTGCTAGATGTGCTG+CAGCACATATAGCACGTCG ((((((((((.((((((((+)))))))).))))))))))
Second: CGACGTGCCTCATGTGCTG+CAGCACATGGGGCACGTCG (((((((((.(((((((((+))))))))).)))))))))
The Tm of the first is lower: 57.6 °C for the first, 61.2 °C for the second.

Compared with “CGACGTGCCGTATGTGCTG+CAGCACATGCTGCACGTCG ((((((((.(.((((((((+)))))))).).))))))))”, “CGACGTGCGAAATGTGCTG+CAGCACATGAAGCACGTCG ((((((((...((((((((+))))))))...))))))))” is higher in Tm: 51.2 °C for the first, 59.3 °C for the second.

First: CGACGTGCTGCATGTGCTG+CAGCACATGGGGCACGTCG ((((((((..(((((((((+)))))))))..))))))))
Second: CGACGTGCGTTATGTGCTG+CAGCACATTTCGCACGTCG (((((((((..((((((((+))))))))..)))))))))
The Tm of the first is higher: 57 °C for the first, 54.4 °C for the second.

Compared with “CGACGTGCCCCATGTGCTG+CAGCACATAAGGCACGTCG (((((((((..((((((((+))))))))..)))))))))”, “CGACGTGCACCATGTGCTG+CAGCACATTTGGCACGTCG ((((((((...((((((((+))))))))...))))))))” is lower in Tm: 52.7 °C for the first, 44.6 °C for the second.

Going from “CGACGTGCAATATGTGCTG+CAGCACATTACGCACGTCG ((((((((...((((((((+))))))))...))))))))” to “CGACGTGCTACATGTGCTG+CAGCACATGCTGCACGTCG ((((((((..(((((((((+)))))))))..))))))))”, the Tm rises from 49.7 °C to 52.8 °C.

Going from “CGACGTGCAACATGTGCTG+CAGCACATGCGGCACGTCG ((((((((..(((((((((+)))))))))..))))))))” to “CGACGTGCTCTATGTGCTG+CAGCACATAGAGCACGTCG (((((((((((((((((((+)))))))))))))))))))”, the Tm rises from 53.5 °C to 63 °C.

Going from “CGACGTGCGTCATGTGCTG+CAGCACATCTCGCACGTCG (((((((((..((((((((+))))))))..)))))))))” to “CGACGTGCCAGATGTGCTG+CAGCACATAATGCACGTCG ((((((((...((((((((+))))))))...))))))))”, the Tm falls from 52.4 °C to 48.5 °C.

Compared with “CGACGTGCCGAATGTGCTG+CAGCACATCGAGCACGTCG ((((((((...((((((((+))))))))...))))))))”, “CGACGTGCGGCATGTGCTG+CAGCACATCCAGCACGTCG ((((((((.(.((((((((+)))))))).).))))))))” is lower in Tm: 55.3 °C for the first, 53.9 °C for the second.

First: CGACGTGCGTGATGTGCTG+CAGCACATTGGGCACGTCG ((((((((...((((((((+))))))))...))))))))
Second: CGACGTGCACCATGTGCTG+CAGCACATGAGGCACGTCG ((((((((..(((((((((+)))))))))..))))))))
The Tm of the first is lower: 52.3 °C for the first, 53.9 °C for the second.

Compared with “CGACGTGCTAGATGTGCTG+CAGCACATAGTGCACGTCG ((((((((...((((((((+))))))))...))))))))”, “CGACGTGCGTAATGTGCTG+CAGCACATTCGGCACGTCG ((((((((..(((((((((+)))))))))..))))))))” is higher in Tm: 46.1 °C for the first, 53.1 °C for the second.
